US20240108716A1

Key:
[1] = molecular target: SARS-CoV-2 S peptide 469 (C-GGG-…) (SARS-CoV-2); experiment: ELISA, control for CPMV469 on immobilised peptide
[2] = molecular target: SARS-CoV-2 S peptide 106 (C-GGG-…) (SARS-CoV-2); experiment: ELISA, control for CPMV106 on immobilised peptide
[3] = molecular target: SARS-CoV-2 S peptide 386 (C-GGG-…) (SARS-CoV-2); experiment: ELISA, control for CPMV386 on immobilised peptide
[4] = molecular target: SARS-CoV-2 S peptide 420 (C-GGG-…) (SARS-CoV-2); experiment: ELISA, control for CPMV420 on immobilised peptide
[5] = molecular target: SARS-CoV-2 S peptide 460 (C-GGG-FRKSN) (SARS-CoV-2); experiment: ELISA, control for CPMV460 on immobilised peptide
[6] = molecular target: SARS-CoV-2 S peptide 153 (C-GGG-…) (SARS-CoV-2); experiment: ELISA, control for CPMV153 on immobilised peptide
[7] = molecular target: SARS-CoV-2 S peptide 826 (C-GGG-…) (SARS-CoV-2); experiment: ELISA, control for CPMV826 on immobilised peptide
[8] = molecular target: SARS-CoV-2 S peptide 454 (C-GGG-…) (SARS-CoV-2); experiment: ELISA, control for CPMV454 on immobilised peptide
[9] = molecular target: SARS-CoV-2 S peptide 564 (C-GGG-…) (SARS-CoV-2); experiment: ELISA, control for CPMV564 on immobilised peptide
[10] = molecular target: SARS-CoV-2 S peptide 1159 (C-GGG-…) (SARS-CoV-2); experiment: ELISA, control for CPMV1159 on immobilised peptide
[11] = molecular target: SARS-CoV-2 S peptide 820 (C-GGG-…) (SARS-CoV-2); experiment: ELISA, control for CPMV820 on immobilised peptide
[12] = molecular target: SARS-CoV-2 S peptide 570 (C-GGG-…) (SARS-CoV-2); experiment: ELISA, control for CPMV570 on immobilised peptide
[13] = molecular target: SARS-CoV-2 S peptide 636 (C-GGG-…) (SARS-CoV-2); experiment: ELISA, control for CPMV636 on immobilised peptide

## Control plasma of the peptide ELISA of the CPMV-based COVID-19 vaccines (antibody)
[1]
  endpoint IgG titer (reciprocal dilution): 1870
[2]
  endpoint IgG titer (reciprocal dilution): 400
[3]
  endpoint IgG titer (reciprocal dilution): 266
[4]
  endpoint IgG titer (reciprocal dilution): 400
[5]
  endpoint IgG titer (reciprocal dilution): 1470
[6]
  endpoint IgG titer (reciprocal dilution): 2130
[7]
  endpoint IgG titer (reciprocal dilution): 1600
[8]
  endpoint IgG titer (reciprocal dilution): 100
[9]
  endpoint IgG titer (reciprocal dilution): 1600
[10]
  endpoint IgG titer (reciprocal dilution): 400
[11]
  endpoint IgG titer (reciprocal dilution): 800
[12]
  endpoint IgG titer (reciprocal dilution): 1600
[13]
  endpoint IgG titer (reciprocal dilution): 100
